Source: US8697714B2, “Quinazolinone based fluorogenic probes” (Nanyang Technological University, priority 2010, dated 2014)

B1: MAO B (Homo sapiens) (protein)
chain: MSNKCDVVVVGGGISGMAAAKLLHDSGLNVVVLEARDRVGGRTYTLRNQKVKYVDLGGSYVGPTQNRILRLAKELGLETYKVNEVERLIHHVKGKSYPFRGPFPPVWNPITYLDHNNFWRTMDDMGREIPSDAPWKAPLAEEWDNMTMKELLDKLCWTESAKQLATLFVNLCVTAETHEVSALWFLWYVKQCGGTTRIISTTNGGQERKFVGGSGQVSERIMDLLGDRVKLERPVIYIDQTRENVLVETLNHEMYEAKYVISAIPPTLGMKIHFNPPLPMMRNQMITRVPLGSVIKCIVYYKEPFWRKKDYCGTMIIDGEEAPVAYTLDDTKPEGNYAAIMGFILAHKARKLARLTKEERLKKLCELYAKVLGSLEALEPVHYEEKNWCEEQYSGGCYTTYFPPGILTQYGRVLRQPVDRIYFAGTETATHWSGYMEGAVEAGERAAREILHAMGKIPEDEIWQSEPESVDVPAQPITTTFLERHLPSVPGLLRLIGLTTIFSATALGFLAHKRGLLVRV
notes: purchased Sigma Aldrich
B2: MAO A (Homo sapiens) (protein)
chain: MENQEKASIAGHMFDVVVIGGGISGLSAAKLLTEYGVSVLVLEARDRVGGRTYTIRNEHVDYVDVGGAYVGPTQNRILRLSKELGIETYKVNVSERLVQYVKGKTYPFRGAFPPVWNPIAYLDYNNLWRTIDNMGKEIPTDAPWEAQHADKWDKMTMKELIDKICWTKTARRFAYLFVNINVTSEPHEVSALWFLWYVKQCGGTTRIFSVTNGGQERKFVGGSGQVSERIMDLLGDQVKLNHPVTHVDQSSDNIIIETLNHEHYECKYVINAIPPTLTAKIHFRPELPAERNQLIQRLPMGAVIKCMMYYKEAFWKKKDYCGCMIIEDEDAPISITLDDTKPDGSLPAIMGFILARKADRLAKLHKEIRKKKICELYAKVLGSQEALHPVHYEEKNWCEEQYSGGCYTAYFPPGIMTQYGRVIRQPVGRIFFAGTETATKWSGYMEGAVEAGERAAREVLNGLGKVTEKDIWVQEPESKDVPAVEITHTFWERNLPSVSGLLKIIGFSTSVTALGFVLYKYKLLPRS
notes: purchased Sigma Aldrich

What was measured:
[1] = substrate: NCCCOc1ccc(Cl)cc1-c1nc2ccc(Cl)cc2c(=O)[nH]1; experiment: Enzymatic kinetics of MAO-HPQ 1 oxidation (Lineweaver-Burk plot), MAO B; format: biochemical; details: other: MAO B, Tris-buffer 100 mM pH 7.90, 25° C., pH 7.9
Protocol: (§1) The enzyme kinetics was carried out in Tris-buffer (100 mM, pH 7.90) at 25° C. The enzymatic oxidation of fluorogenic substrate MAO-HPQ 1 was monitored in Varian Cary eclipse Fluorescence spectrophotometer. To a series of different MAO-HPQ 1 substrate concentration (ranged from 0˜250 μM) were added a solution of MAO A or MAO B enzyme with final concentration of […] was added to adjust the final volume to 100 μl. The rate of enzymatic oxidation was monitored with the increase of fluorescent enhancement at 530 nm. The values of the enzyme kinetic parameters (Km and Kcat) were determined from the standard Lineweaver-Burk plot, the double-reciprocal plot of the reaction rate versus MAO-HPQ 1 concentration.
(§2) Measurement of the fluorescent signal at different substrate concentrations provided the Michaelis-Menten kinetics constants.

[2] = substrate: NCCCOc1ccc(Cl)cc1-c1nc2ccc(Cl)cc2c(=O)[nH]1; experiment: Enzymatic kinetics of MAO-HPQ 1 oxidation (Lineweaver-Burk plot), MAO A; format: biochemical; details: other: MAO A, Tris-buffer 100 mM pH 7.90, 25° C., pH 7.9
Protocol: as §1, §2

Protein	Km [1]	kcat [1]	kcat/Km [1]	Km [2]	kcat [2]
B1	106.8 ± 5.06 µM	0.141 ± 0.007 s⁻¹	1320 M⁻¹ s⁻¹	–	–
B2	–	–	–	146.1 ± 7.21 µM	0.163 ± 0.00817 s⁻¹
